In paper PMC4079599, “Mixed Disulfide Formation at Cys141 Leads to Apparent Unidirectional Attenuation of Aspergillus niger NADP-Glutamate Dehydrogenase Activity” (PLoS ONE, 2014):

What was measured:
[1] = test system: N; assay: purified protein; conditions: forward reaction, Tris-HCl pH 8.0, 2-oxoglutarate and NADPH, room temperature
[2] = test system: T1, O=C(O)CCC(=O)C(=O)O; assay: purified protein; assay type: biochemical, Aspergillus niger; conditions: forward reaction, sigmoid saturation, Tris-HCl pH 8.0, ammonium chloride and NADPH, room temperature
T1 construct: full-length cDNA in pET43.1(b) NdeI/HindIII, E. coli BL21(DE3), without a tag, purified

[3] = test system: T2, N[C@@H](CCC(=O)O)C(=O)O; assay: purified protein; assay type: biochemical, Aspergillus niger; conditions: reverse reaction, Tris-HCl pH 9.3, NADP+, room temperature
T2 construct: full-length cDNA in pET43.1(b) NdeI/HindIII, E. coli BL21(DE3), without a tag, purified

[4] = target: T3, AnGDH (NADP-glutamate dehydrogenase from Aspergillus niger, recombinant) (Aspergillus niger, UniProt B6V7E4); assay: residual forward activity after […] h incubation; assay type: biochemical; conditions: covalent; saturated cystine (0.47 mM), 1 h, 37°C; standard forward assay pH 8.0
T3 construct: full-length cDNA in pET43.1(b) NdeI/HindIII, E. coli BL21(DE3), without a tag, purified
T3 sequence (B6V7E4 1-460): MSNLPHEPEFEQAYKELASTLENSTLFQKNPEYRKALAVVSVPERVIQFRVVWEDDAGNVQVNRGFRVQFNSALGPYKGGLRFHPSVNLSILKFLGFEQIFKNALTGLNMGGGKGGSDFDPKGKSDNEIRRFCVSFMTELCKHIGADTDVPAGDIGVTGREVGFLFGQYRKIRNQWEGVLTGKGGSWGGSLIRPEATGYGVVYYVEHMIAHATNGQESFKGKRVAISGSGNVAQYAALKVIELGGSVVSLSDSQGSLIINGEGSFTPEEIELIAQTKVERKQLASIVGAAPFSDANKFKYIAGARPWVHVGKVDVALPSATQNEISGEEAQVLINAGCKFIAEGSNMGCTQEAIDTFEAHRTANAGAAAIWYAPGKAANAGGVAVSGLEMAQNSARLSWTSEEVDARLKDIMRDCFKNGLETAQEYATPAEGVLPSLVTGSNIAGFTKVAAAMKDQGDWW

[5] = target: T3, AnGDH (NADP-glutamate dehydrogenase from Aspergillus niger, recombinant); assay: time-dependent inactivation of forward activity, kapp versus concentration; assay type: biochemical; conditions: covalent, mixed disulfide at Cys141; incubation at 37°C; residual activity in standard forward assay pH 8.0
[6] = substrate: NC(=O)C1=CN([C@@H]2O[C@H](COP(=O)(O)OP(=O)(O)OC[C@H]3O[C@@H](n4cnc5c(N)ncnc54)[C@H](OP(=O)(O)O)[C@@H]3O)[C@@H](O)[C@H]2O)C=CC1; assay: purified protein; assay type: biochemical, Aspergillus niger; conditions: forward reaction, Tris-HCl pH 8.0, 2-oxoglutarate and ammonium chloride, room temperature
[7] = substrate: N[C@@H](CCC(=O)O)C(=O)O; assay: purified protein; assay type: biochemical, Aspergillus niger; conditions: reverse reaction, Tris-HCl pH 9.3, NADP+, room temperature
[8] = substrate: NC(=O)c1ccc[n+]([C@@H]2O[C@H](COP(=O)(O)OP(=O)(O)OC[C@H]3O[C@@H](n4cnc5c(N)ncnc54)[C@H](OP(=O)(O)O)[C@@H]3O)[C@@H](O)[C@H]2O)c1; assay: purified protein; assay type: biochemical, Aspergillus niger; conditions: reverse reaction, Tris-HCl pH 9.3, L-glutamate, room temperature
[9] = substrate: O=C(O)CCC(=O)C(=O)O; assay: purified protein; assay type: biochemical, Aspergillus niger; conditions: forward reaction, sigmoid saturation, Tris-HCl pH 8.0, ammonium chloride and NADPH, room temperature
[10] = substrate: N; assay: purified protein; conditions: forward reaction, Tris-HCl pH 8.0, 2-oxoglutarate and NADPH, room temperature; remark: listed apart in the source

In the case of “AnGDH (NADP-glutamate dehydrogenase from Aspergillus niger, recombinant) (Aspergillus niger; C141S)”, the Km [1] is reported as 1200 µM, the K0.5 [2] is reported as 4.00 mM and the Km [3] is reported as 28600 µM.

In the case of `N[C@@H](CSSC[C@H](N)C(=O)O)C(=O)O` [Cystine], the “Residual activity (%) / Forward” value [4] is reported as 8.3±1.9%.

“AnGDH (NADP-glutamate dehydrogenase from Aspergillus niger, recombinant) (Aspergillus niger; C415S)” gave a K0.5 [2] of 15.50 mM and a Km [3] of 36800 µM.

`OCCSSCCO` [2-HED] was tested, and the “second order inactivation rate constant” value [5] was 0.937 M⁻¹ s⁻¹.

B1: AnGDH (NADP-glutamate dehydrogenase from Aspergillus niger, recombinant) (Aspergillus niger) (protein)
chain: MSNLPHEPEFEQAYKELASTLENSTLFQKNPEYRKALAVVSVPERVIQFRVVWEDDAGNVQVNRGFRVQFNSALGPYKGGLRFHPSVNLSILKFLGFEQIFKNALTGLNMGGGKGGSDFDPKGKSDNEIRRFCVSFMTELCKHIGADTDVPAGDIGVTGREVGFLFGQYRKIRNQWEGVLTGKGGSWGGSLIRPEATGYGVVYYVEHMIAHATNGQESFKGKRVAISGSGNVAQYAALKVIELGGSVVSLSDSQGSLIINGEGSFTPEEIELIAQTKVERKQLASIVGAAPFSDANKFKYIAGARPWVHVGKVDVALPSATQNEISGEEAQVLINAGCKFIAEGSNMGCTQEAIDTFEAHRTANAGAAAIWYAPGKAANAGGVAVSGLEMAQNSARLSWTSEEVDARLKDIMRDCFKNGLETAQEYATPAEGVLPSLVTGSNIAGFTKVAAAMKDQGDWW
notes: full-length cDNA in pET43.1(b) NdeI/HindIII, E. coli BL21(DE3), without a tag, purified
Molecule B1 has a Km [6] of 23 µM, a Km [7] of 30900 µM and a Km [8] of 28 µM. For the same molecule, the K0.5 [9] was 5.70 mM and the Km [10] was 1100 µM.
